Earlier results, collected in paper PMC8781899.
Read-outs that look alike come from different tables or passages of the source.

Legend:
DR4 (Homo sapiens) [1] = molecular target: DR4 (Homo sapiens) (UniProt O00220)
DR4 (Homo sapiens) [2] = molecular target: DR4 (Homo sapiens) (UniProt O00220); remark: listed apart in the source

Chain of UniProt O00220 (O00220 24-468): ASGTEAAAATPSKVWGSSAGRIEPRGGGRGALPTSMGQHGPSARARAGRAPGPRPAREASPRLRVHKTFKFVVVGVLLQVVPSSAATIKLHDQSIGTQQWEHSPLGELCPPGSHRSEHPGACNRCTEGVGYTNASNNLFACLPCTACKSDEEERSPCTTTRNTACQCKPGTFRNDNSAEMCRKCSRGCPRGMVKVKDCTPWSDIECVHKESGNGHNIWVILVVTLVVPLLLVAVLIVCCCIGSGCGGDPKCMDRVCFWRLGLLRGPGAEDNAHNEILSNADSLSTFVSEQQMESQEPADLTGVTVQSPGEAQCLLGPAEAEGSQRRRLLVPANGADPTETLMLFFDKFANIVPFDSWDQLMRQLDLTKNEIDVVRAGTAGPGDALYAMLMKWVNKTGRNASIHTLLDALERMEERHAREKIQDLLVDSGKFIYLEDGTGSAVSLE
Chain of TRAIL (P50591 whole entry): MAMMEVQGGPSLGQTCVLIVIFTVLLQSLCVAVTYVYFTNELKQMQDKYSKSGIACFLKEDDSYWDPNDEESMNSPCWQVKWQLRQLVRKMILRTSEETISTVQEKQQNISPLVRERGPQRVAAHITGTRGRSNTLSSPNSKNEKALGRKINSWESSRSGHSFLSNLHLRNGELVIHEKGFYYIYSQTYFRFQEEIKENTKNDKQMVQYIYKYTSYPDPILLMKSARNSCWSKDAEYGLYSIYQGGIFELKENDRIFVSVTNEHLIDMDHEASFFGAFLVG

Kd (DR4 (Homo sapiens) [1]) [nM] | Kd (DR4 (Homo sapiens) [2]) [nM] | Substance
2.9 | – | TRAIL D269H/E195R (DHER) (from UniProt P50591)
– | 0.17 | TRAIL (from UniProt P50591)
